In patent US20230381328A1, “COMPOUND FOR THE PREVENTION OR TREATMENT OF MYASTHENIA GRAVIS” (ABLEVIA BIOTECH GMBH, priority 2020, published 2023):
Where no end group is shown, it is not given here.

Target: monoclonal antibody mAB 198
Test: peptide microarray, fluorescence, cyclic peptide

Binder	relative signal [%]
LRWNPADYP (also: cyclic peptide, mode of cyclisation not given here)	13.1
NPADYGD (also: cyclic peptide, mode of cyclisation not given here) [NPADYGD, cyclic mimotope]	12.6
VNPADYG (also: cyclic peptide, mode of cyclisation not given here) [VNPADYG, cyclic mimotope]	12.5
GGGSLRRNPAD (also: cyclic peptide, mode of cyclisation not given here)	12.5
RPRWNPADY (also: cyclic peptide, ring type and places not given here)	12.4
GSLRWNPADYP (also: cyclic peptide, mode of cyclisation not given here)	12.4
SLRYNPADY (also: cyclic peptide, mode of cyclisation not given here)	12.2
RANPADY (also: cyclic peptide, ring type and places not given here) [RANPADY, cyclic mimotope]	12.2
GSLRINPADYG (also: cyclic peptide, mode of cyclisation not given here)	12.1
RPNPADYGG (also: cyclic peptide, ring type and places not given here)	11.9
NPADYGY (also: cyclic peptide, ring type and places not given here) [NPADYGY, cyclic mimotope]	11.8
ALRWNPADY (also: cyclic peptide, mode of cyclization not given here)	11.5
GGSLRYNPADY (also: cyclic peptide, mode of cyclisation not given here)	11.5
RIRWNPADY (also: cyclic peptide, ring type and places not given here)	11.5
RWNPADR (also: cyclic peptide, ring type and places not given here) [RWNPADR, cyclic mimotope]	11
RLHWNPADY (also: cyclic peptide, ring type and places not given here)	10.8
QLRWNPADY (also: cyclic peptide, ring type and places not given here)	10.7

Binder	relative signal [%]
RLRQNPADY (not fully specified; cyclic peptide) [RLRONPADY, cyclic mimotope]	10.6
DVRLRWNPSDY (also: cyclic peptide, mode of cyclisation not given here)	10.5
VRLRWNPADYS (also: cyclic peptide, mode of cyclisation not given here)	10.5
DVRLRYNPADY (also: cyclic peptide, mode of cyclisation not given here)	10.5
GSLRFNPADYG (also: cyclic peptide, mode of cyclisation not given here)	10.4
GGSLRWNPADR (also: cyclic peptide, mode of cyclisation not given here)	10.3
LRWNPADYR (also: cyclic peptide, mode of cyclisation not given here)	10.3
LRWNPADYGGF (also: cyclic peptide, mode of cyclisation not given here)	10.3
GSLRWNPADYD (also: cyclic peptide, mode of cyclisation not given here)	10.2
RLRWNPADYHG (also: cyclic peptide, ring type and places not given here)	10.1
RLRWNPADYGP (also: cyclic peptide, ring type and places not given here)	10
GSLRWNPADYN (also: cyclic peptide, mode of cyclisation not given here)	10
VRLRINPADYG (also: cyclic peptide, mode of cyclisation not given here)	10
LRPNPADYG (also: cyclic peptide, mode of cyclisation not given here)	10
TLRWNPADY (also: cyclic peptide, mode of cyclisation not given here)	9.9
VRLRGNPAD (also: cyclic peptide, mode of cyclisation not given here)	9.9
RSRWNPADY (also: cyclic peptide, ring type and places not given here)	9.8
